Experimental data: patent publication US20210380673A1

How the values were obtained:
Assay in all cases: cell-based or functional assay
[1] = biological target: recombinant human CCL20 (human) (UniProt P78556)
[2] = biological target: recombinant mouse CCL20 (mouse) (UniProt O89093)
[3] = biological target: human CCR6 (human) (UniProt P51684)
Chain of UniProt P51684 (P51684 whole entry): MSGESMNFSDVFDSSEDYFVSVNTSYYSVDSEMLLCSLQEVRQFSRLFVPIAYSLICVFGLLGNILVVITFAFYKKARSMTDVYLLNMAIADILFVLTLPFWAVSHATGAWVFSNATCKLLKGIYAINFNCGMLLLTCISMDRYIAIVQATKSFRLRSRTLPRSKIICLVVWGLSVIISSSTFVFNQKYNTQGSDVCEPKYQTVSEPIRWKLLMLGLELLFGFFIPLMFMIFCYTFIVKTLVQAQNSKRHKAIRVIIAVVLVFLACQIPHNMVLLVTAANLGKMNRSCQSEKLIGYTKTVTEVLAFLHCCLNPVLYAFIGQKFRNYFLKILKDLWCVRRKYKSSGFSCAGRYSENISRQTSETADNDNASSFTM

Chain of UniProt P78556 (P78556 27-96 limits assumed): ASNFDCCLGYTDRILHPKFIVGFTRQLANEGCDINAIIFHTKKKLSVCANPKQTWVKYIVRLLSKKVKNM
Chain of UniProt O89093 (O89093 28-97 limits assumed): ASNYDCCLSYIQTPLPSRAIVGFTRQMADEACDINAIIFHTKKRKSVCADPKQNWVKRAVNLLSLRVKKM

neutralizing monoclonal antibody against human CCL20 (clone 67310; R&D Systems)
IC50, beta-arrestin translocation assay (CHO-K1 cells overexpressing human CCR6, stimulated with 6 nM CCL20) [1]: 2.7 nM
IC50, cAMP assay (Ad293 cells overexpressing human CCR6, stimulated with 1 nM CCL20) [1]: 0.8 nM

anti-mouse CCL20 monoclonal antibody (clone 114908; R&D Systems)
IC50, beta-arrestin translocation assay (CHO-K1 cells overexpressing mouse CCR6, stimulated with 1.2 nM mouse CCL20) [2]: 14 nM

recombinant human CCL20 (from UniProt P78556 27-96) (ligand)
expression of NANOG, BMI1, OCT3/4 and SOX2 in CCR6+ against CCR6- NCIH508 cells after 48 hours with 100 pg/mL CCL20 [3]: 2 fold
